Like-named read-outs stand apart in the source and are kept apart here. One block for each binder: values may come before it. Where no end group is shown, it is not given here. The star is where a group is joined. Dansyl = CN(C)c1cccc2c(S(=O)(=O)*)cccc12; MBP = maltose binding protein fusion
Columns and labels:
[1] = target: T1, recombinant 6xHis-tagged calmodulin (UniProt P0DP23 1-149); experiment: ITC
[2] = target: T1, recombinant 6xHis-tagged calmodulin; experiment: ITC; remark: listed apart in the source
[3] = target: C-terminal half domain of CaM (residues 76-149) fused to blue fluorescent protein (UniProt P0DP23 76-149); experiment: ITC
[4] = target: N-terminal half domain of CaM (residues 1-75) fused to cyan fluorescent protein (UniProt P0DP23 1-75); experiment: ITC
[5] = target: T1, recombinant 6xHis-tagged calmodulin; experiment: ITC; remark: listed apart in the source
[6] = target: T1, recombinant 6xHis-tagged calmodulin; experiment: other fluorescence titration
[7] = target: T1, recombinant 6xHis-tagged calmodulin; experiment: fluorescence polarisation
[8] = target: T1, recombinant 6xHis-tagged calmodulin; experiment: other fluorescence titration; remark: listed apart in the source
[9] = target: T1, recombinant 6xHis-tagged calmodulin; experiment: ITC; remark: listed apart in the source
[10] = target: T1, recombinant 6xHis-tagged calmodulin; experiment: ITC; remark: listed apart in the source
[11] = target: Dansyl-labeled CaM (UniProt P0DP23 1-149, Dansyl label (site not stated)); experiment: other fluorescence titration
[12] = target: the molecule itself; experiment: SEC
[13] = target: the molecule itself; experiment: SEC; remark: listed apart in the source

dH (per mole CMBD) [1]: -3.81 kcal/mol | stoichiometry N [1]: 1.83 | Ka [2]: 1.02e+06 M⁻¹ | Ka [3]: 950000 M⁻¹ | dH (per mole protein) [3]: -4.02 kcal/mol | stoichiometry N [3]: 1.04 [peptide]/Protein] | Ka [4]: 2.42e+06 M⁻¹ | dH (per mole protein) [4]: -3.94 kcal/mol | stoichiometry N [4]: 0.89 [peptide]/Protein] | Ka [5]: 878000 M⁻¹ | dH (per mole protein) [5]: -6.94 kcal/mol | stoichiometry N [5]: 1.82 [peptide]/Protein] | Ka [6]: 1.71e+07 M⁻¹ | Ka [7]: 8.64e+06 M⁻¹
Binder: RPDWSKVFQKVAAEKKGKV [human Nox5β CaM-binding domain (CMBD) peptide, residues 671-689]

Ka [8]: 4.95e+06 M⁻¹
Binder: Dansyl-RPDWSKVFQKVAAEKKGKV [N-terminal Dansyl-labeled human Nox5β CMBD peptide]

Ka [9]: 894000 M⁻¹ | Ka [10]: ~1e+06 M⁻¹ | Ka [11]: 2.52e+06 M⁻¹ | stoichiometry N [11]: 1.02 [Peptide]/[Protein]
B1: MBP-fused human Nox5β dehydrogenase domain residues 605-719 (domain or fragment)
chain: SLLTKLEMDQAEEAQYGRFLELHMYMTSALGKNDMKAIGLQMALDLLANKEKKDSITGLQTRTQPGRPDWSKVFQKVAAEKKGKVQVFFCGSPALAKVLKGHCEKFGFRFFQENF

Ka [9]: 2.71e+06 M⁻¹ | Ka [11]: 1.39e+06 M⁻¹ | stoichiometry N [11]: 0.92 [Peptide]/[Protein]
B2: MBP-fused human Nox5β dehydrogenase domain residues 528-719 (domain or fragment)
chain: PTRRIFASEHAVLIGAGIGITPFASILQSIMYRHQKRKHTCPSCQHSWIEGVQDNMKLHKVDFIWINRDQRSFEWFVSLLTKLEMDQAEEAQYGRFLELHMYMTSALGKNDMKAIGLQMALDLLANKEKKDSITGLQTRTQPGRPDWSKVFQKVAAEKKGKVQVFFCGSPALAKVLKGHCEKFGFRFFQENF

Ka [9]: 1.39e+06 M⁻¹ | Ka [11]: 4.9e+06 M⁻¹ | stoichiometry N [11]: 0.92 [Peptide]/[Protein]
B3: MBP-fused human Nox5β dehydrogenase domain residues 665-719 (domain or fragment)
chain: {MBP}-TRTQPGRPDWSKVFQKVAAEKKGKVQVFFCGSPALAKVLKGHCEKFGFRFFQENF
modifications: cysteine pairing not given here

Ka [9]: 933000 M⁻¹ | Ka [11]: 1.82e+06 M⁻¹ | stoichiometry N [11]: 0.89 [Peptide]/[Protein]
B4: MBP-fused human Nox5β dehydrogenase domain residues 584-719 (domain or fragment, UniProt Q96PH1-4 584-719, looked up)
chain: KLHKVDFIWINRDQRSFEWFVSLLTKLEMDQAEEAQYGRFLELHMYMTSALGKNDMKAIGLQMALDLLANKEKKDSITGLQTRTQPGRPDWSKVFQKVAAEKKGKVQVFFCGSPALAKVLKGHCEKFGFRFFQENF
stoichiometry N [12]: ~3 | stoichiometry N [13]: ~4
